# B1: Guanyl-specific ribonuclease T1 wild type, P00651 (protein)
# chain: MMYSKLLTLTTLLLPTALALPSLVERACDYTCGSNCYSSSDVSTAQAAGYQLHEDGETVGSNSYPHKYNNYEGFDFSVSSPYYEWPILSSGDVYSGGSPGADRVVFNENNQLAGVITHTGASGNNFVECT
# Details: Aspergillus oryzae (strain ATCC 42149 / RIB 40), DSC, reversible: yes, whole UniProt chain shown; for Tm / heat capacity change of unfolding / unfolding enthalpy (calorimetric) / unfolding enthalpy (van 't Hoff): Thermal; for denaturant m value / denaturant midpoint (higher = more stable) / unfolding free energy: Urea, MOPS 30 mM
# [1] = pH 7, PIPES 30 mM, MgCl2 0.01 M
# [2] = pH 7, PIPES 30 mM, MgCl2 0.02 M
# [3] = pH 7, PIPES 30 mM, MgCl2 0.03 M
# [4] = pH 7, PIPES 30 mM, MgCl2 0.06 M
# [5] = pH 7, PIPES 30 mM, MgCl2 0.10 M
# [6] = pH 7, PIPES 30 mM, MgCl2 0.20 M
# [7] = pH 7, PIPES 30 mM, MgCl2 0.40 M
# [8] = pH 7, PIPES 30 mM, MgCl2 0.60 M
# [9] = pH 7, PIPES 30 mM, MgCl2 0.80 M
protein,measurement,setting,value
B1,Tm,"pH 2.2, glycine 30 mM",45.4 °C
same,heat capacity change of unfolding,"pH 2.2, glycine 30 mM",1.53 kcal/mol/K
same,unfolding enthalpy (calorimetric),"pH 2.2, glycine 30 mM",89.6 kcal/mol
same,unfolding enthalpy (van 't Hoff),"pH 2.2, glycine 30 mM",114 kcal/mol
same,Tm,"pH 2.8, glycine 30 mM",49 °C
same,heat capacity change of unfolding,"pH 2.8, glycine 30 mM",1.64 kcal/mol/K
same,unfolding enthalpy (calorimetric),"pH 2.8, glycine 30 mM",95.3 kcal/mol
same,unfolding enthalpy (van 't Hoff),"pH 2.8, glycine 30 mM",109 kcal/mol
same,Tm,"pH 4, acetate 30 mM",56.7 °C
same,heat capacity change of unfolding,"pH 4, acetate 30 mM",2.47 kcal/mol/K
same,unfolding enthalpy (calorimetric),"pH 4, acetate 30 mM",102 kcal/mol
same,unfolding enthalpy (van 't Hoff),"pH 4, acetate 30 mM",114 kcal/mol
same,Tm,"pH 5, acetate 30 mM",56.5 °C
same,heat capacity change of unfolding,"pH 5, acetate 30 mM",1.74 kcal/mol/K
same,unfolding enthalpy (calorimetric),"pH 5, acetate 30 mM",106 kcal/mol
same,unfolding enthalpy (van 't Hoff),"pH 5, acetate 30 mM",117 kcal/mol
same,denaturant m value,"pH 7, 14.9 °C",1.26 kcal/mol/M
same,denaturant midpoint (higher = more stable),"pH 7, 14.9 °C",5.65 M
same,unfolding free energy,"pH 7, 14.9 °C",6.84 kcal/mol
same,denaturant m value,"pH 7, 21.1 °C",1.1 kcal/mol/M
same,denaturant midpoint (higher = more stable),"pH 7, 21.1 °C",4.98 M
same,unfolding free energy,"pH 7, 21.1 °C",6.03 kcal/mol
same,denaturant m value,"pH 7, 23.05 °C",1.2 kcal/mol/M
same,denaturant midpoint (higher = more stable),"pH 7, 23.05 °C",4.86 M
same,unfolding free energy,"pH 7, 23.05 °C",5.89 kcal/mol
same,denaturant m value,"pH 7, 25 °C",1.2 kcal/mol/M
same,denaturant midpoint (higher = more stable),"pH 7, 25 °C",4.58 M
same,unfolding free energy,"pH 7, 25 °C",5.55 kcal/mol
same,denaturant m value,"pH 7, 27 °C",1.2 kcal/mol/M
same,denaturant midpoint (higher = more stable),"pH 7, 27 °C",4.14 M
same,unfolding free energy,"pH 7, 27 °C",5.01 kcal/mol
same,denaturant m value,"pH 7, 29 °C",1.27 kcal/mol/M
same,denaturant midpoint (higher = more stable),"pH 7, 29 °C",3.93 M
same,unfolding free energy,"pH 7, 29 °C",4.76 kcal/mol
same,denaturant m value,"pH 7, 34.75 °C",1.22 kcal/mol/M
same,denaturant midpoint (higher = more stable),"pH 7, 34.75 °C",2.92 M
same,unfolding free energy,"pH 7, 34.75 °C",3.54 kcal/mol
same,denaturant m value,"pH 7, 40.1 °C",1.28 kcal/mol/M
same,denaturant midpoint (higher = more stable),"pH 7, 40.1 °C",2.13 M
same,unfolding free energy,"pH 7, 40.1 °C",2.58 kcal/mol
same,Tm,"pH 7, PIPES 30 mM, MgCl2 0 M",48.9 °C
same,heat capacity change of unfolding,"pH 7, PIPES 30 mM, MgCl2 0 M",1.35 kcal/mol/K
same,unfolding enthalpy (calorimetric),"pH 7, PIPES 30 mM, MgCl2 0 M",95.5 kcal/mol
same,unfolding enthalpy (van 't Hoff),"pH 7, PIPES 30 mM, MgCl2 0 M",118 kcal/mol
same,Tm,[1],52.4 °C
same,heat capacity change of unfolding,[1],1.22 kcal/mol/K
same,unfolding enthalpy (calorimetric),[1],98.2 kcal/mol
same,unfolding enthalpy (van 't Hoff),[1],117 kcal/mol
same,Tm,[2],53.5 °C
same,heat capacity change of unfolding,[2],0.86 kcal/mol/K
same,unfolding enthalpy (calorimetric),[2],98.9 kcal/mol
same,unfolding enthalpy (van 't Hoff),[2],117 kcal/mol
same,Tm,[3],54 °C
same,heat capacity change of unfolding,[3],0.94 kcal/mol/K
same,unfolding enthalpy (calorimetric),[3],99.1 kcal/mol
same,unfolding enthalpy (van 't Hoff),[3],119 kcal/mol
same,Tm,[4],55.4 °C
same,heat capacity change of unfolding,[4],1.02 kcal/mol/K
same,unfolding enthalpy (calorimetric),[4],104 kcal/mol
same,unfolding enthalpy (van 't Hoff),[4],120 kcal/mol
same,Tm,[5],56.6 °C
same,heat capacity change of unfolding,[5],1.11 kcal/mol/K
same,unfolding enthalpy (calorimetric),[5],104 kcal/mol
same,unfolding enthalpy (van 't Hoff),[5],121 kcal/mol
same,Tm,[6],58.1 °C
same,heat capacity change of unfolding,[6],0.71 kcal/mol/K
same,unfolding enthalpy (calorimetric),[6],104 kcal/mol
same,unfolding enthalpy (van 't Hoff),[6],122 kcal/mol
same,Tm,[7],60.1 °C
same,heat capacity change of unfolding,[7],1.22 kcal/mol/K
same,unfolding enthalpy (calorimetric),[7],108 kcal/mol
same,unfolding enthalpy (van 't Hoff),[7],122 kcal/mol
same,Tm,[8],61.9 °C
same,heat capacity change of unfolding,[8],1.07 kcal/mol/K
same,unfolding enthalpy (calorimetric),[8],109 kcal/mol
same,unfolding enthalpy (van 't Hoff),[8],125 kcal/mol
same,Tm,[9],63 °C
same,heat capacity change of unfolding,[9],1.14 kcal/mol/K
same,unfolding enthalpy (calorimetric),[9],111 kcal/mol
same,unfolding enthalpy (van 't Hoff),[9],121 kcal/mol
same,Tm,"pH 7, PIPES 30 mM, NaCl 0 M",48.9 °C
same,heat capacity change of unfolding,"pH 7, PIPES 30 mM, NaCl 0 M",1.35 kcal/mol/K
same,unfolding enthalpy (calorimetric),"pH 7, PIPES 30 mM, NaCl 0 M",95.5 kcal/mol
same,unfolding enthalpy (van 't Hoff),"pH 7, PIPES 30 mM, NaCl 0 M",118 kcal/mol
same,Tm,"pH 7, PIPES 30 mM, NaCl 0.05 M",51 °C
same,heat capacity change of unfolding,"pH 7, PIPES 30 mM, NaCl 0.05 M",0.93 kcal/mol/K
same,unfolding enthalpy (calorimetric),"pH 7, PIPES 30 mM, NaCl 0.05 M",99.5 kcal/mol
same,unfolding enthalpy (van 't Hoff),"pH 7, PIPES 30 mM, NaCl 0.05 M",120 kcal/mol
same,Tm,"pH 7, PIPES 30 mM, NaCl 0.10 M",52.1 °C
same,heat capacity change of unfolding,"pH 7, PIPES 30 mM, NaCl 0.10 M",1.6 kcal/mol/K
same,unfolding enthalpy (calorimetric),"pH 7, PIPES 30 mM, NaCl 0.10 M",101 kcal/mol
same,unfolding enthalpy (van 't Hoff),"pH 7, PIPES 30 mM, NaCl 0.10 M",119 kcal/mol
same,Tm,"pH 7, PIPES 30 mM, NaCl 0.20 M",53.9 °C
same,heat capacity change of unfolding,"pH 7, PIPES 30 mM, NaCl 0.20 M",1.31 kcal/mol/K
same,unfolding enthalpy (calorimetric),"pH 7, PIPES 30 mM, NaCl 0.20 M",105 kcal/mol
same,unfolding enthalpy (van 't Hoff),"pH 7, PIPES 30 mM, NaCl 0.20 M",121 kcal/mol
same,Tm,"pH 7, PIPES 30 mM, NaCl 0.40 M",56.5 °C
same,heat capacity change of unfolding,"pH 7, PIPES 30 mM, NaCl 0.40 M",1.4 kcal/mol/K
same,unfolding enthalpy (calorimetric),"pH 7, PIPES 30 mM, NaCl 0.40 M",107 kcal/mol
same,unfolding enthalpy (van 't Hoff),"pH 7, PIPES 30 mM, NaCl 0.40 M",121 kcal/mol
same,Tm,"pH 7, PIPES 30 mM, NaCl 0.60 M",58.5 °C
same,heat capacity change of unfolding,"pH 7, PIPES 30 mM, NaCl 0.60 M",1.31 kcal/mol/K
same,unfolding enthalpy (calorimetric),"pH 7, PIPES 30 mM, NaCl 0.60 M",111 kcal/mol
same,unfolding enthalpy (van 't Hoff),"pH 7, PIPES 30 mM, NaCl 0.60 M",122 kcal/mol
same,Tm,"pH 7, PIPES 30 mM, NaCl 0.80 M",60.2 °C
same,heat capacity change of unfolding,"pH 7, PIPES 30 mM, NaCl 0.80 M",2.11 kcal/mol/K
same,unfolding enthalpy (calorimetric),"pH 7, PIPES 30 mM, NaCl 0.80 M",111 kcal/mol
same,unfolding enthalpy (van 't Hoff),"pH 7, PIPES 30 mM, NaCl 0.80 M",124 kcal/mol
same,Tm,"pH 7, PIPES 30 mM, NaCl 1.20 M",63.2 °C
same,heat capacity change of unfolding,"pH 7, PIPES 30 mM, NaCl 1.20 M",1.42 kcal/mol/K
same,unfolding enthalpy (calorimetric),"pH 7, PIPES 30 mM, NaCl 1.20 M",112 kcal/mol
same,unfolding enthalpy (van 't Hoff),"pH 7, PIPES 30 mM, NaCl 1.20 M",126 kcal/mol
same,Tm,"pH 7, PIPES 30 mM, NaCl 1.60 M",65.6 °C
same,heat capacity change of unfolding,"pH 7, PIPES 30 mM, NaCl 1.60 M",1.37 kcal/mol/K
same,unfolding enthalpy (calorimetric),"pH 7, PIPES 30 mM, NaCl 1.60 M",115 kcal/mol
same,unfolding enthalpy (van 't Hoff),"pH 7, PIPES 30 mM, NaCl 1.60 M",125 kcal/mol
same,Tm,"pH 7, PIPES 30 mM",48.9 °C
same,heat capacity change of unfolding,"pH 7, PIPES 30 mM",1.35 kcal/mol/K
same,unfolding enthalpy (calorimetric),"pH 7, PIPES 30 mM",95.5 kcal/mol
same,unfolding enthalpy (van 't Hoff),"pH 7, PIPES 30 mM",119 kcal/mol
same,Tm,"pH 7.5, PIPES 30 mM",46.7 °C
same,heat capacity change of unfolding,"pH 7.5, PIPES 30 mM",1.71 kcal/mol/K
same,unfolding enthalpy (calorimetric),"pH 7.5, PIPES 30 mM",93.2 kcal/mol
same,unfolding enthalpy (van 't Hoff),"pH 7.5, PIPES 30 mM",121 kcal/mol
same,Tm,"pH 8, PIPES 30 mM",45.8 °C
same,heat capacity change of unfolding,"pH 8, PIPES 30 mM",0.88 kcal/mol/K
same,unfolding enthalpy (calorimetric),"pH 8, PIPES 30 mM",91.6 kcal/mol
same,unfolding enthalpy (van 't Hoff),"pH 8, PIPES 30 mM",116 kcal/mol
same,Tm,"pH 9, glycine 30 mM",40.7 °C
same,heat capacity change of unfolding,"pH 9, glycine 30 mM",0.42 kcal/mol/K
same,unfolding enthalpy (calorimetric),"pH 9, glycine 30 mM",76.5 kcal/mol
same,unfolding enthalpy (van 't Hoff),"pH 9, glycine 30 mM",114 kcal/mol
same,Tm,"pH 10, glycine 30 mM",39.4 °C
same,unfolding enthalpy (calorimetric),"pH 10, glycine 30 mM",76.9 kcal/mol
same,unfolding enthalpy (van 't Hoff),"pH 10, glycine 30 mM",104 kcal/mol

# Source: FireProtDB (doi:10.1021/bi00135a019)
